System: Escherichia coli TOP10
Assay: shrunken log2 fold change of peptide-encoding DNA abundance (4.5 h post-induction vs induction); higher = less antimicrobial activity (less host growth inhibition)
Details: time post-induction: 4.5 h; library: site-saturation at positions 5, 18, 19, 20
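Note: peptides expressed intracellularly from a pBAD plasmid library in pooled LB shake-flask culture, induced with 0.3% L-arabinose, DNA abundance read by NGS, three biological replicates, DESeq2 with apeglm shrinkage.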

Sequence | shrunken log2 fold change
RRIRTRPPRLPRPRPRPMNSPRP | -0.191
RRIRRRPPRLPRPRPRPKRPPRP | 0.656
RRIRCRPPRLPRPRPRPVPLPRP | 0.00193
RRIRMRPPRLPRPRPRPYVGPRP | 0.0299
RRIRTRPPRLPRPRPRPCMGPRP | -0.247
RRIRHRPPRLPRPRPRPTNMPRP | 1.96
RRIRGRPPRLPRPRPRPEHHPRP | 0.262
RRIRDRPPRLPRPRPRPFTSPRP | -0.0273
RRIRTRPPRLPRPRPRPREEPRP | 0.368
RRIRGRPPRLPRPRPRPPRFPRP | 1.04
RRIRVRPPRLPRPRPRPPWCPRP | 0.497
RRIRCRPPRLPRPRPRPEWFPRP | 0.000144
RRIRIRPPRLPRPRPRPGCYPRP | -0.715
RRIRARPPRLPRPRPRPWGTPRP | 0.211
RRIRPRPPRLPRPRPRPIGQPRP | 0.121
RRIRWRPPRLPRPRPRPHSQPRP | 0.0984
RRIRKRPPRLPRPRPRPHNIPRP | -0.1
RRIRPRPPRLPRPRPRPGHKPRP | -0.287
RRIRSRPPRLPRPRPRPSCSPRP | -0.231
RRIRCRPPRLPRPRPRPTKWPRP | -0.121
RRIRWRPPRLPRPRPRPAQRPRP | 0.418
RRIRRRPPRLPRPRPRPSFQPRP | 0.0356
RRIRVRPPRLPRPRPRPRCAPRP | 0.517
RRIRIRPPRLPRPRPRPENSPRP | 0.0169
RRIRIRPPRLPRPRPRPQVEPRP | -0.127

Sequence | shrunken log2 fold change
RRIRSRPPRLPRPRPRPDRAPRP | 0.611
RRIRRRPPRLPRPRPRPESMPRP | 0.358
RRIRARPPRLPRPRPRPILKPRP | 0.221
RRIRWRPPRLPRPRPRPAPSPRP | 0.393
RRIRERPPRLPRPRPRPSYRPRP | 3.5
RRIRNRPPRLPRPRPRPMCNPRP | -0.0631
RRIRKRPPRLPRPRPRPTVAPRP | 0.814
RRIRSRPPRLPRPRPRPEHSPRP | -0.182
RRIRWRPPRLPRPRPRPTQSPRP | 0.472
RRIRWRPPRLPRPRPRPIWYPRP | -0.149
RRIRWRPPRLPRPRPRPWWIPRP | 0.109
RRIRGRPPRLPRPRPRPSTHPRP | 0.159
RRIRYRPPRLPRPRPRPDHLPRP | -0.00968
RRIRGRPPRLPRPRPRPQFLPRP | -0.0259
RRIRLRPPRLPRPRPRPHFTPRP | -0.355
RRIRTRPPRLPRPRPRPFLWPRP | 0.189
RRIRNRPPRLPRPRPRPHGHPRP | -0.0841
RRIRTRPPRLPRPRPRPRYGPRP | -0.284
RRIRNRPPRLPRPRPRPRYKPRP | -0.566
RRIRKRPPRLPRPRPRPNYRPRP | 0.123
RRIRQRPPRLPRPRPRPQIGPRP | -0.0384
RRIRIRPPRLPRPRPRPSNIPRP | -0.207
RRIRKRPPRLPRPRPRPSTFPRP | -0.00863
RRIRGRPPRLPRPRPRPPPFPRP | 0.887
RRIRARPPRLPRPRPRPPMSPRP | 0.414

Sequence | shrunken log2 fold change
RRIRMRPPRLPRPRPRPVFNPRP | -0.0958
RRIRERPPRLPRPRPRPIYPPRP | -0.0605
RRIRTRPPRLPRPRPRPIDRPRP | -0.148
RRIRRRPPRLPRPRPRPAMFPRP | 0.372
RRIRNRPPRLPRPRPRPNHLPRP | -0.317
RRIRVRPPRLPRPRPRPQEFPRP | -0.06
RRIRPRPPRLPRPRPRPWWAPRP | 0.00677
RRIRNRPPRLPRPRPRPECLPRP | 0.254
RRIRPRPPRLPRPRPRPGGRPRP | 0.461
RRIRSRPPRLPRPRPRPECIPRP | 0.00247
RRIRMRPPRLPRPRPRPHTEPRP | 0.191
RRIRFRPPRLPRPRPRPCSQPRP | 0.0319
RRIRGRPPRLPRPRPRPIKEPRP | -0.104
RRIRHRPPRLPRPRPRPIHEPRP | -0.153
RRIRLRPPRLPRPRPRPSCHPRP | -0.475
RRIRFRPPRLPRPRPRPHDCPRP | -0.0297
RRIRKRPPRLPRPRPRPRYVPRP | 0.0611
RRIRCRPPRLPRPRPRPWPMPRP | 0.168
RRIRDRPPRLPRPRPRPQGSPRP | -0.0152
RRIRRRPPRLPRPRPRPNVVPRP | 0.0745
RRIRIRPPRLPRPRPRPEITPRP | -0.461
RRIRTRPPRLPRPRPRPSWFPRP | -0.343
RRIRGRPPRLPRPRPRPLSTPRP | 1.13
RRIRKRPPRLPRPRPRPHMPPRP | -0.175
RRIRPRPPRLPRPRPRPWRHPRP | -0.0659
